Columns and labels:
[1] = test system: K4 kissing-loop RNA reporter; assay: apparent KD of K4 kissing-loop reporter; higher = weaker reporter binding; settings: Eterna round: R107;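 further: bound reporter read as fluorescence of individual clusters on recovered sequencing chips by microscopy, with normalized cluster intensities fitted with a binding model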
Protocol: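 RNA-MaP round R107: designed RNA switches with theophylline, tryptophan, arginine or FMN aptamers are transcribed on-chip within common flanks. They are titrated with a labelled K4 kissing-loop RNA reporter in RNA-MaP buffer (100 mM Tris pH 7.5, 80 mM KCl, 4 mM MgCl2), without ligand or with the indicated ligand. Median apparent KD per design.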

[2] = test system: MS2 coat protein; assay: apparent KD of MS2 coat protein; designed switch direction (-1 OFF switch, 1 ON switch): -1; higher = weaker reporter binding
Procedure, shortened: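 For each design, the apparent KD is the median over clusters of curves fitted to normalised cluster fluorescence. Clusters held RNA switches with common flanks, transcribed on Illumina chips by stalled E. coli RNA polymerase. These were titrated with SNAP-549-labelled MS2 coat protein, doubling from 0.7 or 1.5 nM to 3 µM, without input, with 200 uM small-molecule ligand, or with an oligonucleotide input.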

[3] = input ligand: theophylline 20 uM
[4] = input ligand: tryptophan 2.4 mM
[5] = Eterna round: R95, input ligand: microRNA oligo, concentration not stated
[6] = Eterna round: R95, input ligand: FMN 200 uM
[7] = Eterna round: R95, input ligand: none

Row | Sequence | apparent KD of K4 kissing-loop reporter ([1]; input ligand: FMN 200 uM) [nM] | apparent KD of K4 kissing-loop reporter ([1]; input ligand: arginine 13.2 mM) [nM] | apparent KD of K4 kissing-loop reporter ([1]; input ligand: none) [nM] | apparent KD of K4 kissing-loop reporter [1, 3] [nM] | apparent KD of K4 kissing-loop reporter [1, 4] [nM] | apparent KD of MS2 coat protein ([2]; input ligand: FMN 200 uM) [nM] | apparent KD of MS2 coat protein ([2]; input ligand: none) [nM] | apparent KD of MS2 coat protein [2, 5] [nM] | other results
1 | AAAUAGAUCAGUCAUCCAGUGAUGUUGGAAGGAGCGUGCGAAAGCACAGGUAGGUCGCCAGAAUAAAAGUGGCUGAUCAAAAUAA | 273 | 318 | 322 | 467 | 178 | – | – | – | –
2 | AAAUAUAGUGAUGUUAUAUAUAUAUGUGAUACCAGAGAAAGAAAACUCCCUUGGCAGCACGAGAGAGAAUUUUUUUUUUAUAUAU [AstrosSSTheA#1] | 362 | 398 | 552 | 414 | 245 | – | – | – | –
3 | AAAUAUUCGAGUGAUGUUCGAUAAAUUUCAGAGGAUAUGCUUAAAAGCAGAAGGCUGUAUUUCUAUUUGUUAUUAAAUUUUAUAA [JR_ExcFMNA_Sub002] | 90.3 | 107 | 91.1 | 111 | 76.9 | – | – | – | –
4 | AAAUUUAAUAUAUUUAAAUAAAUAUGUGAUACCAGACAUUUAUAAGUCCCUUGGCAGCACAAUGCAGUGAUGUUGCUUAUAAUAA [JR_SSTheophyA_Sub017] | 85.6 | 114 | 88.8 | 192 | 73.5 | – | – | – | –
5 | AAAUUUAAUAUAUUUAAUUAAUUAAGUGAUACCAGACAUUAAUAAGUCCCUUGGCAGCACAAUGCAGUGAUGUUGCUUAUAAUAA [JR_SSTheophyA_Sub009] | 129 | 120 | 76.6 | 169 | 76.3 | – | – | – | –
6 | AACAACUUGUUUGUCGGGUGUUCGCGCGAUACCAGCCGAAUGGAUGGCCCUUGGCAGCGCAGCGAGUGAUGUUCGCCCGCUUGAC [Exclusion Theophylline A GF 24] | 611 | 422 | 552 | 529 | 583 | – | – | – | –
7 | AACACUCACGGAGUGAUGUUCUGGAAUAAACGAGGACCGGUACGGCCGCCACUCGAAAAUGAGUGAGUCCUACGAAAAGUAGGAC [Omei inspired 4] | 357 | 394 | 361 | 405 | 108 | – | – | – | –
8 | AACCUUGUAGUGAUGUUGCAAGGCGCUGAUACCAGUCACAGCCACGACCCUUGGCAGCAGUGGCGUUCAUGAUAAAAUAGAUUAA [theeternabot_sameState_KL_Theo_A_49] | 42 | 41.5 | 41.4 | 37 | 39.9 | – | – | – | –
9 | AACGUGGCCAAAGGAUAUCUCCCUACGUCGUUGCAUCUACCUCUGUUUGCUCUGAGUGAUGUUUGGAGAGAAGGUUGAGGCGAUU [theeternabot_exclusion_KL_FMN_B_29] | 532 | 317 | 442 | 513 | 387 | – | – | – | –
10 | UUUUACAUGCUGAGAUCCUACAUGAGGAUCACCCAUGUGGUCCGGUGACUUUUGUCACCGGAUUUUGCUCGUCUUGU [salish99_S_TOV1_R5_101] (Eterna round: R97, puzzle: Sensor, turn-off variant 1) | – | – | – | – | – | 84.8 | 108 | – | –
11 | UUUUACGCAGGAUAUACAUUUUUUUUAUUAUCCUCAUUAUUACAUGAGGAUCACCCAUGUAGAAGGGCGAUUUU [My Design] (puzzle: Exclusion 2) | – | – | – | – | – | – | – | 38.8 | –
12 | UUUUAGAGAGGAUAUAUAUUGUGAAACAUGAGGAUCACCCAUGUAAUAAUAUGGAUGUAAAUAGAAGGCUCAUUUA [JL-ex5-3.03] (puzzle: Exclusion 5) | – | – | – | – | – | – | – | 44.6 | apparent KD of MS2 coat protein [2, 6]: 37.5 nM; apparent KD of MS2 coat protein [2, 7]: 42.7 nM
13 | UUUUAGAGAGGAUAUAUUAUGUGAAACAUGAGGAUCACCCAUGUAAUAUAAUGGAUGUAAAUAGAAGGCUCAUUUA [Mat - Exclusion 5 - JL mod - D22] (puzzle: Exclusion 5) | – | – | – | – | – | – | – | 28.4 | apparent KD of MS2 coat protein [2, 6]: 28.4 nM; apparent KD of MS2 coat protein [2, 7]: 41.1 nM
14 | UUUUAGCAAGCGAGAUCCCACAUGAGGAUCACCCAUGUGCAUCCAGAAUUACUGGGUGCAAAAGCUCGUCUUAUAUA [Winner reversed engineered] (Eterna round: R97, puzzle: Sensor, turn-off variant 1) | – | – | – | – | – | 54.9 | 50.1 | – | –
15 | UUUUAGUCAGGAUAUACAUGAGGAUCACCCAUGUAAAAUUUUAAUUUAAUUUUAAGGUGUAGAAGGGACAACCC [Ex3 #13] (Eterna round: R97, puzzle: Exclusion 3) | – | – | – | – | – | 26.6 | 32.6 | – | –
16 | UUUUCUUUUGUGAGGAUAUACUUGUUUUUUUUUUUGUAGAAGGCACAUGAGGAUCACCCAUGUACUCUUUCCUG [JR_BME4_Sub024] (puzzle: Brourd's mod of Exclusion 4) | – | – | – | – | – | – | – | 20.1 | –
17 | UUUUGCACGCUGCGGUCCUACAUGAGGAUCACCCAUGUGGUCUGGUGGCGUGGGUCGCCGGACUUGGCUCGUCUUGG [salish99_S_TOV1_R5_035] (Eterna round: R97, puzzle: Sensor, turn-off variant 1) | – | – | – | – | – | 15.5 | 14.9 | – | –
18 | UUUUGUUCAGGAUAUGUAGAAUUUAACAUGAGGAUCACCCAUGUAGAUCCUGAAUAAACUACAGAAGGGAACAUUU [Mat - Exclusion 5 - Eli Mod - D15] (Eterna round: R97, puzzle: Exclusion 5) | – | – | – | – | – | 215 | 27.4 | – | –
19 | UUUUUCGUUUAAGCUUCGUACAUGAGGAUCACCCAUGUUUUUAGUUCUGUGUUGGUCAGUAUGGAAGUUCGUCUUAU [JR_SV3TOV1_Sub089] (puzzle: Sensor v3, turn-off variant 1) | – | – | – | – | – | – | – | 166 | apparent KD of MS2 coat protein [2, 6]: 325 nM; apparent KD of MS2 coat protein [2, 7]: 371 nM
20 | UUUUUCUCAGGAUAUACAUGAGGAUCACCCAUGUAUAUUAAUGAUAAUACAUGGGAAUGUAGAAGGGAGCUCAU [Omei Ex3 Pseudoloop 13] (Eterna round: R97, puzzle: Exclusion 3) | – | – | – | – | – | 111 | 135 | – | –
21 | UUUUUGAUAGGAUAUACAUGAGGAUCACCCAUGUGUGACAGGACUGACGCUCUUCAUCGUAGAAGGAUCCGAGC [Eternabot (L1) Solution 97] (Eterna round: R97, puzzle: Exclusion 3) | – | – | – | – | – | 27.4 | 30.9 | – | –
22 | UUUUUGUGAGGAUAUCAGUAGUAGAACAAUAGUACUACUACUGAGAAGGCACAUGAGGAUCACCCAUGUUCCUU [Fiskers Ex 4 Super stable 44 mod 12] (puzzle: Exclusion 4) | – | – | – | – | – | – | – | 14.9 | –
23 | UUUUUUGUAGUGAGGAUAUCGUUGUGGAUGUGGAUCGAGAAGGCACAUGAGGAUCACCCAUGUUAGUUGUGGUU [JR_BMOE4_Sub084] (puzzle: Brourd's mod of Exclusion 4) | – | – | – | – | – | – | – | 188 | –

— the supplement of paper PMC9170038
